Results from patent US20130108602A1, “METHODS AND USES OF NUR77 AND NUR77 AGONISTS TO MODULATE MACROPHAGES AND MONOCYTES, AND TREAT INFLAMMATION, INFLAMMATORY DISEASE AND CARDIOVASCULAR DISEASE” (LA JOLLA INSTITUTE FOR ALLERGY AND IMMUNOLOGY, priority 2010, published 2013).

Tests used:
Nur77 protein = Nur77 protein staining in primary human monocyte-derived macrophages; type: cell-based; conditions: at 24 hours, Gal-3BP 10 μg/ml
Nur77 mRNA = experiment: Nur77 (NR4A1) mRNA by real-time RT-PCR in human monocyte-derived macrophages; type: cell-based

B1: Gal-3BP: recombinant human galectin-3 binding protein (R&D) (protein, UniProt Q08380 19-585, looked up)
Galectin-3-binding protein: VNDGDMRLADGGATNQGRVEIFYRGQWGTVCDNLWDLTDASVVCRALGFENATQALGRAAFGQGSGPIMLDEVQCTGTEASLADCKSLGWLKSNCRHERDAGVVCTNETRSTHTLDLSRELSEALGQIFDSQRGCDLSISVNVQGEDALGFCGHTVILTANLEAQALWKEPGSNVTMSVDAECVPMVRDLLRYFYSRRIDITLSSVKCFHKLASAYGARQLQGYCASLFAILLPQDPSFQMPLDLYAYAVATGDALLEKLCLQFLAWNFEALTQAEAWPSVPTDLLQLLLPRSDLAVPSELALLKAVDTWSWGERASHEEVEGLVEKIRFPMMLPEELFELQFNLSLYWSHEALFQKKTLQALEFHTVPFQLLARYKGLNLTEDTYKPRIYTSPTWSAFVTDSSWSARKSQLVYQSRRGPLVKYSSDYFQAPSDYRYYPYQSFQTPQHPSFLFQDKRVSWSLVYLPTIQSCWNYGFSCSSDELPVLGLTKSGGSDRTIAYENKALMLCEGLFVADVTDFEGWKAAIPSALDTNSSKSTSSFPCPAGHFNGFRTVIRPFYLTNSSGVD
Nur77 protein compared to control (Nur77 protein): massively increased
time of peak Nur77 mRNA expression after addition (Nur77 mRNA; M-CSF-derived human macrophages (M0), Gal-3BP 10 μg/ml): 48 h
NUR77 mRNA increase (Nur77 mRNA; M-CSF-derived human macrophages (M0), Gal-3BP 10 μg/ml, 0-72 hours, two independent studies): 3-4 fold
NR4A1 expression induction (Nur77 mRNA; human primary macrophages, 6 hours after Gal-3BP, normalized to t=0, n=3): more than 6 fold
